Tested on: CC(C)C=O
Assay: isobutyraldehyde reduction kinetics (A340, initial rates)
Type: biochemical, Mucor circinelloides
Details: other: 30° C., pH 7.0, NADH specific
Text: This example describes preparation of ADH-gene constructs for over-expression/purification and measurement of enzyme activities using a time-course assay. Horse-liver ADH (HLADH; A-6128) was purchased from Sigma. Achromobacter xylosoxidans SadB (SadB), Saccharomyces cerevisiae ADH6 (ScADH6) and ADH7 (ScADH7), Entamoeba histolytica ADH1 (EhADH1), Bos Taurus Aldehyde Reductase (BtARD), Beijerinckia indica subsp. Indica ATCC 9039 (BiADH), Clostridium beijerinckii ADH (CbADH), Rana perezi ADH8 (RpADH8), Rattus norvegicus ADH1 (RnADH1), Thermus sp. ATN1 ADH (TADH), Phenylobacterium zucineum HLK1 ADH (PzADH), Methylocella silvestris BL2 ADH (MsADH), Acinetobacter baumannii AYE ADH (AbADH), Geobacillus sp. WCH70 ADH (GbADH), Vanderwaltozyma polyspora DSM 70294 ADH (VpADH), Mucor circinelloides ADH (McADH), and Rhodococcus erythropolis PR4ADH (ReADH) were the candidates for which subclones were prepared for protein expression and purification.
As a routine practice, the crude extracts and purified proteins were assayed for butanol oxidation activity, in order to ensure that the recombinant proteins were active throughout the purification process. […] Alcohol oxidation activities were carried out in 50 mM sodium phosphate buffer at pH 8.8 and aldehyde reduction reactions were assayed in 190 mM potassium phosphate buffer at pH 7.0. […]
Kinetic constants of the ADH enzymes were calculated and compared to identify those candidate ADH enzymes with the most desirable properties for the conversion of isobutyraldehyde to isobutanol in the last step of the engineered pathway for isobutanol production. […] The kcat/KM is derived from the individual numbers of kcat and KM and not an experimentally determined value. […]
Seven additional candidate ADH enzymes were synthesized, expressed, and assayed according to methods such as described in Example 2. […] A comparison of KM, KI, and kcat/KM for each candidate enzyme as compared to the same parameter for SadB are given in Table 9 as a percentage of the values determined (Table 7) for SadB. […]

Mucor circinelloides ADH (McADH), SEQ ID NO: 39 (Mucor circinelloides)
Km: 30 mM
kcat: 151 s⁻¹
kcat/Km: 5000 M⁻¹ s⁻¹
